Data taken from patent US20140302063A1 (SECRETARY OF STATE FOR HEALTH, published 2014).
Numbering of substitutions follows the chain as printed.

B1: R2a-G9 (VHH)
VHH: QVQLVESGGGLVQPGGSLRLSCAASDNIFSFYTMGWYRQSPGKERELVAVIGNGGNTNYADSVKGRFTISRDNGKNKAHLQMNSLKPEDTAVYYCKASGPGGVEVWGQGTQVTVSS
B2: R2a-G8 (VHH)
VHH: QLQLAESGGGLVQAGGSLRLSCAASGSTLNNNAIGWFRQAPGKEREGVSCMNSRDGTTNYADSVKGRFTISRDVAKNTVYLQMNSLKPEDTAVYFCAVKGFAPFLIGCPWGKAEYDYWGQGTQVTVSS
B3: R2a-B9 (VHH)
VHH: QVQLVESGGGLVQPGGSLRLSCAASGSAFSINAMGWYRQAPGEEREFVAAITAGGNTYYADSAKARFTISRDNAKNMLYLQMNSLKPEDTAMYYCAATKAFGIATITADYELWGQGTQVTVSS
B4: R1a-E5 (VHH)
VHH: QLQLVESGGGLVQPGGSLRLSCTASGFSLDNYAIGWFRRAPGEEREGVSFITSTSAVTKYADSVKGRFTISRDNAKNTVYLQMTSLKPEDTAVYYCAGTRWVPTMKADEYNYWGQGTQVTVSS
B5: R1a-C5 (VHH)
VHH: QVQLVESGGGLVQPGGSLRLSCAASNDIFSFYTMGWYLQAIGKQREPVAVIGNGGNTNYAESVKGRFTISRDGAKNTAYLQMNSLKPEDTAVYYCMASGPGGLNVWGQGTQVTVSS
B6: R1a-G6 (VHH)
VHH: QVQLVESGGGLVQSGGSLRLSCAASGSMSRIITMGWYRQAPGMERELVAVIGNNDNTVYGDSVQGRFTVSRDNAKNTAYLQMNSLNAEDTAMYYCKISTLTPPHEYWGQGTQVTVSS
B7: R2a-H9 (VHH)
VHH: QVQLVESGGGLVQPGGSLRLSCAASTNIASFYTMGWYRQTPGQQRDVVAVIGNGGNTNYADSVKGRFTISRDGAKNTAHLQMNSLKPEDTDVYYCKASGPGGVILWGQGTQVTVSS
B8: R2b-E8 (VHH)
VHH: QVQLVESGGGLVQPGGSLRLSCAASGSFFSRYRMGWYRQAPGEQRELVAGITYDDSTNYAGSVKGRFTISRDNAKNTVHLQMNSLKPEDTAVYYCNLNPPGNLYWGQGTQVTVSS
B9: R2b-D9 (VHH)
VHH: QVQLVESGGGLVQPGGSLRLSCLASGSAFSLYTMGWYRQAPGNQRELVAAITSGESTNYADSVKGRFTISRDNAKNTVYLQMNSLKPEDTAVYYCNADPLSTGWGQYSYWGQGTQVTVSS
B10: R1a-E6 (VHH)
VHH: QVQLVESGGGLVQPGGSLRLSCAASGFTLGAYAIAWFRQAPGKEREGVSCISPSDSFTEYGDSVKGRFTVSRDNAKNTVYLQMNSLQPEDTAVYYCAADPVCTAGWYRPSRFDLWGQGTQVTVSS
B11: R1a-F5 (VHH)
VHH: QLQLVESGGGLVQVGGSLRLSCAASGFPFDGYAIAWFRQAPGKEREGVSCRASDGNTYYAESLKGRLTMSTDNAKNTVYLQMNSLKPEDTAVYYCAAASWVASLWSPSEYDYWGQGTQVTVSS
B12: R1a-G5 (VHH)
VHH: QLQLVESGGGLVQPGGSLRLSCAASGSISRIVTMGWYRQASGKERELVAVIGNYGNTNYADSVKGRFTVSRDNAKDTAYLQMNGLNVEDTAIYYCKTSTTTPPYEYWGQGTQVTVSS
B13: R1a-F4 (VHH)
VHH: B12 VHH with L2V, A40G, S41P, G84N, I92M, T97C, Y104H, Y106F
B14: R2a-E8 (VHH)
VHH: QLQLVESGGGLVQPGGSLRLSCTASGDIFVMYMIDWYRQAPGKQRELVASIDGRGTPMYADSVKGRFTISRDNAKNTVYLQMNSLKPEDTAVYSCHAKSPLVDNEYWGQGTQVTVSS
B15: R1a-A5 (VHH)
VHH: QVQLVESGGGLVQPGGSLRLSCSASGSAVLFSTYPMSWYRQAPGKQRELVAAVTTDGSTSYADYAKGRFTISRDNAKNTVYLQMNSLKPEDTAVYYCNARDGFFNRYDYWGQGTQVTVSS
B16: R1a-B6 (VHH)
VHH: QVQLVESGGGLVQPGGSLRLSCAASGSFFSRYRMGWYRQAPGEQRELVASIAYDGSTSYADPVKGRFTISRDNANTVHLQMYSLKPDDTAVYYCNLDPPGILYWGQGTQVTVSS
B17: R2a-F9 (VHH)
VHH: QVQLVESGGGLVQPGGSLRLSCSASGSISSIVTMGWYRQAPGKERELVAVIGNYGNTNYADSVKGRFTVSRDNAKNTVYLQMNSLNVEDTAMYVCKFSSTVAPHEYWGQGTQVTVSS
B18: R1a-H6 (VHH)
VHH: QVQLVESGGGLVQAGDSLRLSCTASVLTFSLYRVGWFRQAPGKEREFVAAIDWGDGPTTYADSVKGRFTISRDNAERTAYLQINSLKPEDTAVYYCGAGNTGSSDRSSSYVHWGQGTQVTVSS
B19: R2b-D8 (VHH)
VHH: QVQLVESGGGLVQPGGSLRLSCAASGFTFSWYDVGWYRRAPGKERELVADIASTRGTTNYADSVKGRFTISRDNAKNSVYLQMNSLKPEDTAVYYCNTRRDWRDYWGQGIQVTVSS

These binders were tested against full length recombinant H1 residues 18-530 derived from A/California/06/09 (Influenza A virus A/California/06/09 (H1N1)) (assay: SPR, single cycle kinetics, HA immobilised).

Binder	Kd
B1	62 nM
B2	3.1 nM
B3	0.2 nM
B4	0.6 nM
B5	1.9 nM
B6	4.4 nM
B7	2.8 nM
B8	8.2 nM
B9	0.4 nM
B10	22.8 nM
B11	9.2 nM
B12	24 nM
B13	7.3 nM
B14	0.8 nM
B15	3.3 nM
B16	0.7 nM
B17	60 nM

These binders were tested against recombinant H9 A/HongKong/1073/99 (H9N2) (Influenza A virus A/HongKong/1073/99 (H9N2)) (assay: SPR, single cycle kinetics, HA immobilised).

Binder	Kd
B5	22 nM
B8	87 nM
B9	59 nM
B16	7.6 nM

Each binder was assayed against recombinant H5 A/Vietnam/1203/04 (H5N1) (Influenza A virus A/Vietnam/1203/04 (H5N1)) (assay: SPR, single cycle kinetics, HA immobilised).

Binder	Kd
B2	9 nM
B5	2.7 nM
B8	3.6 nM
B9	1.6 nM
B15	0.7 nM
B16	1.7 nM
B18	241 nM

The binders below were run against Recombinant haemagglutinin HA1 domain (18-344) (A/California/06/09) H1N1 (Influenza A virus A/California/06/09 (H1N1)) (assay: SPR, single cycle kinetics, HA1 domain immobilised).

Binder	Kd
B1	69 nM
B2	7.7 nM
B5	734 nM
B6	4.6 nM
B7	4.7 nM
B10	36 nM
B11	6.1 nM
B12	26 nM
B13	4.7 nM
B17	79 nM

What follows are binders tested against T1, recombinant H2 A/Japan/305/1957 (H2N2) (Influenza A virus A/Japan/305/1957 …, UniProt P03451 16-525) (assay: SPR, single cycle kinetics, HA immobilised).

Binder	Kd
B2	39 nM
B5	67 nM
B7	40 nM
B14	34 nM
B15	186 nM
B16	43 nM

These binders were tested against T1, recombinant H2 A/Japan/305/1957 (H2N2) (assay: SPR, single cycle kinetics).

Binder	binding result
B1	no binding (tested: 100 nM)
B19	no binding (tested: 100 nM)
B3	no binding (tested: 100 nM)
B4	no binding (tested: 100 nM)
B6	no binding (tested: 100 nM)
B8	no binding (tested: 100 nM)
B9	no binding (tested: 100 nM)
B10	no binding (tested: 100 nM)
B11	no binding (tested: 100 nM)
B12	no binding (tested: 100 nM)
B13	no binding (tested: 100 nM)
B17	no binding (tested: 100 nM)
B18	no binding (tested: 100 nM)
